# Source: patent US20260294251A1, “Method for Medical Imaging” (Integro Theranositcs, LLC, priority 2023, published 2026)
# Where two headings read alike, the source gives them in different places. Positions of bridges follow the written chain, without caps; N, C: chain ends. Non-standard residues stand in square brackets, D forms with d. Residues, ends and D or L forms follow the SMILES beside them. *: point of attachment. X1 = CC1(C)C(/C=C/C=C/C=C/C=C2/N(CCC(=O)*)c3ccc4ccccc4c3C2(C)C)=[N+](CCC(=O)[O-])c2ccc3ccccc3c21
# Legend:
# male rats = assay: In-vivo safety pharmacology (functional observation battery) in male rats; design: species or system rat
# Description: (§1) Results from safety pharmacology studies further support the potential safety of L301 and LS301-IT.
# cardiovascular function = assay: Cardiovascular safety pharmacology after single IV administration; format: in vivo, rat; settings: rats, single IV up to 20 mg/kg, up to 24 hours
# Description: as §1
# [1] = system: respiratory system functional parameters; assay: Respiratory safety pharmacology after single IV administration; format: in vivo, Sprague-Dawley rats; settings: single IV up to 20 mg/kg, up to 24 hours
# Description: as §1
# [2] = biological target: human Ether-à-go-go related gene (hERG) (Homo sapiens, UniProt Q12809); assay: human Ether-à-go-go related gene (hERG) assay; format: cell-based
# Sequence of human Ether-à-go-go related gene (hERG) (Q12809 whole entry): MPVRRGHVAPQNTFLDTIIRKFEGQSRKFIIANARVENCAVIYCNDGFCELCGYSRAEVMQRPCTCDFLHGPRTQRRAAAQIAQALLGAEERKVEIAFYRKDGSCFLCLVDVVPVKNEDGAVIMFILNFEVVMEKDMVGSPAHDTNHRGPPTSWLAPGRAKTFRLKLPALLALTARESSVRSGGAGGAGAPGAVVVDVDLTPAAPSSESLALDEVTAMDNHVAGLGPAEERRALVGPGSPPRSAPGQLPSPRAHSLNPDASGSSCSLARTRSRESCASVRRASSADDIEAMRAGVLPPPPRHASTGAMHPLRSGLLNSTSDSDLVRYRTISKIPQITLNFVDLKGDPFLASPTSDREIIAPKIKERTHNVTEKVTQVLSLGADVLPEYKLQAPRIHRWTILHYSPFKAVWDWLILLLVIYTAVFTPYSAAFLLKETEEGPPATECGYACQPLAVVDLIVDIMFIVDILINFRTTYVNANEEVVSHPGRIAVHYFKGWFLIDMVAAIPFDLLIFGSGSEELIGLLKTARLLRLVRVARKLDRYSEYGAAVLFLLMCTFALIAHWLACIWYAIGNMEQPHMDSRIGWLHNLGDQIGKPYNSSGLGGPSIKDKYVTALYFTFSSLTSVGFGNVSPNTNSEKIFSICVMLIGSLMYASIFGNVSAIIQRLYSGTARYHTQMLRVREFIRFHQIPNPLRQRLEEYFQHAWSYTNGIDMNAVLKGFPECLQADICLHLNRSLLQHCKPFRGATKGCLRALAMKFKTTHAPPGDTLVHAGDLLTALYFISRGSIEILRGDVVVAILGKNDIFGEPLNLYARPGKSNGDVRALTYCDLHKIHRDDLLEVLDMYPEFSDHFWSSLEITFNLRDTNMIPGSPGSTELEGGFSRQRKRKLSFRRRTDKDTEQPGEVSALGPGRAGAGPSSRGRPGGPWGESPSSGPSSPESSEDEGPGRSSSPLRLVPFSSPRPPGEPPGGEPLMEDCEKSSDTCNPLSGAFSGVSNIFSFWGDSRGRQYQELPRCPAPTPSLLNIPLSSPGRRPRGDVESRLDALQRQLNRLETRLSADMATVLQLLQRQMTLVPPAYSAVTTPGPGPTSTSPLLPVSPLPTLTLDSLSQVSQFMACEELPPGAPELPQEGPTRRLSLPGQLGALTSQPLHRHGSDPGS
# Description: as §1
# [3] = Single IV dose toxicity study in rats; format: in vivo, rat; settings: rat, in vivo, iv; for selectivity ratio: starting dose 0.025 mg/kg, read-out: safety margin
# Description: (§2) Therefore, the changes were considered non-adverse.
# rats = assay: Single IV dose toxicity study in rats; format: in vivo, rat
# Description: as §2
# [4] = system: Wolff-Bloom-Litton Chinese hamster ovary (CHO-WBL) cells; assay: Chromosomal aberration test in CHO-WBL cells; format: cell-based; settings: with and without an S9 activation system
# Protocol: (§3) LS301 was negative for inducing structural/numerical chromosomal aberrations in Wolff-Bloom-Litton Chinese hamster ovary (CHO-WBL) cells with and without an S9 activation system. In a previous study, the potential for LS301 to cause genotoxicity was evaluated in a GLP bacterial mutagenicity (Ames) test in 4 strains of Salmonella typhimurium (TA100, TA1535, TA98, TA1537) and Escherichia coli (WP2uvrA) at doses up to 1000 μg/plate. The results were negative for LS301 mutagenicity.
# [5] = system: Salmonella typhimurium (TA100, TA1535, TA98, TA1537) and Escherichia coli (WP2uvrA); assay: GLP bacterial mutagenicity (Ames) test; format: cell-based; settings: doses up to 1000 μg/plate; previous study
# Protocol: as §3
# [6] = Toxicokinetics at the NOAEL in the rat toxicity study; format: in vivo; settings: plasma, iv, 20 mg/kg, Day 1, at NOAEL 20 mg/kg; for AUC(0-t) at 48 h: read-out: AUC0-48h; for C0: read-out: Co
# Protocol: In this study, the NOAEL was considered 20 mg/kg. The corresponding AUC0-48h and Co of LS301 at the established NOAEL on Day 1 were 14200 h*ng/ml and 69900 ng/mL for males and 14900 h*ng/mL and 98800 ng/mL for females, respectively. Therefore, the NOAEL of 20 mg/kg is equivalent to a 3.226 mg/kg human dose.
# tumors [7] = settings: mouse, in vivo, iv
# [8] = system: mouse breast cancer model; settings: in vivo, iv
# [9] = rat, in vivo, iv
# Description: (§4) Appropriate bioanalytical methods were developed and validated to measure LS301 concentrations in rat plasma (LC-MS/MS) and various dosing formulations (HPLC-UV, UPLC) per good laboratory practice (GLP) regulations.
# [10] = Pharmacokinetics in the rat after single IV delivery
# Description: as §4
# tumors [11] = assay: Proof of concept imaging and biodistribution in mice after single IV delivery
compound,measurement,setting,value
"CC1(C)C(/C=C/C=C/C=C/C=C2/N(CCC(=O)N[C@@H]3CSSC[C@@H](C(=O)N[C@@H](CCCCN)C(=O)O)NC(=O)[C@@H]4CCCN4C(=O)[C@H](CO)NC(=O)[C@H](CC(=O)O)NC(=O)[C@H](CCCNC(=N)N)NC(=O)CNC3=O)c3ccc4ccccc4c3C2(C)C)=[N+](CCC(=O)[O-])c2ccc3ccccc3c21 [LS301, cypate-cyclo(Cys-Gly-Arg-Asp-Ser-Pro-Cys)-Lys-OH] (X1-[dC]GRDSPCK-OH; disulfide 1-7)",mortality,"male rats; male rats, up to 20 mg/kg",No mortalities
same,functional observation battery (FOB) parameters,"male rats; male rats, up to 20 mg/kg, motor activity, behavior, coordination, reflexes, body temperature",no effects
same,discoloration (green),"male rats; male rats, ≥10 mg/kg",transient LS301-related discoloration (green)
same,"effects on central nervous, cardiovascular, and respiratory functions","male rats; rats, doses up to 20 mg/kg",no significant effects
same,tolerability,"male rats; rats, doses up to 20 mg/kg",Rats tolerated LS301 well
same,cardiovascular function,cardiovascular function,did not affect cardiovascular function
same,"respiratory system functional parameters (tidal volume, respiratory rate, derived minute volume)",[1],did not affect respiratory system functional parameters
same,IC50,[2],> 9.98 µM
same,NOAEL,"[3]; correction factor of 0.88, read-out: corrected NOAEL",17.6 mg/kg
same,NOAEL,"[3]; single IV, read-out: NOAEL",20 mg/kg
same,selectivity ratio,[3]; NOAEL 20 mg/kg,129
same,selectivity ratio,[3]; corrected NOAEL 17.6 mg/kg,114
same,"mortalities or changes in body weight, food consumption, ophthalmology, hematology, coagulation, and urinalysis","rats; rats, up to 20 mg/kg LS301",no mortalities or test article-related changes
same,tolerability,"rats; rats, up to 20 mg/kg LS301",tolerated LS301 and LS301-IT well
same,resolution of discoloration,"rats; ≥10 mg/kg, rat toxicity study",resolved on Day 15
same,structural/numerical chromosomal aberrations,[4],negative
same,mutagenicity (Ames),[5],negative
same,AUC(0-t) at 48 h,[6]; females,14900 ng·h/mL
same,C0,[6]; females,98.8 µg/mL
same,AUC(0-t) at 48 h,[6]; males,14200 ng·h/mL
same,C0,[6]; males,69.9 µg/mL
same,tumor uptake (biodistribution),tumors [7],high uptake in tumors
same,tissue distribution,[8],"distributes and accumulates in tumor and non-tumor tissues, especially the liver and kidneys"
same,tissue distribution,[9],widely distributed to tissues
same,volume of distribution,[9],greater than the total volume of body water in humans
same,half-life,[10]; rat,fewer than five hours
same,systemic exposure versus dose,[10]; rat,increased proportionally with dose
same,difference in systemic exposure between male and female,[10]; rats,No differences were seen
same,accumulation in other tissues,tumors [11],"accumulated in other tissues, especially the excretory organs of the liver and kidneys"
same,binding and accumulation in tumors,tumors [11],could bind and accumulate in tumors
same,tumor-to-background ratio,tumors [11]; four hours post-injection,clear tumor-to-background ratio
